From PMC11850223
Residue numbers refer to the chain shown, from its start.

How the values were obtained:
[1] = target: Hera_1–419_K51Q (ATPase-deficient variant) (Thermus thermophilus); experiment: SEC
[2] = target: Hera_1–510_K51Q (ATPase-deficient variant) (Thermus thermophilus); experiment: SEC
[3] = target: T1, Hera (Thermus thermophilus, UniProt O07897 1-510); experiment: fluorescence anisotropy
T1 sequence: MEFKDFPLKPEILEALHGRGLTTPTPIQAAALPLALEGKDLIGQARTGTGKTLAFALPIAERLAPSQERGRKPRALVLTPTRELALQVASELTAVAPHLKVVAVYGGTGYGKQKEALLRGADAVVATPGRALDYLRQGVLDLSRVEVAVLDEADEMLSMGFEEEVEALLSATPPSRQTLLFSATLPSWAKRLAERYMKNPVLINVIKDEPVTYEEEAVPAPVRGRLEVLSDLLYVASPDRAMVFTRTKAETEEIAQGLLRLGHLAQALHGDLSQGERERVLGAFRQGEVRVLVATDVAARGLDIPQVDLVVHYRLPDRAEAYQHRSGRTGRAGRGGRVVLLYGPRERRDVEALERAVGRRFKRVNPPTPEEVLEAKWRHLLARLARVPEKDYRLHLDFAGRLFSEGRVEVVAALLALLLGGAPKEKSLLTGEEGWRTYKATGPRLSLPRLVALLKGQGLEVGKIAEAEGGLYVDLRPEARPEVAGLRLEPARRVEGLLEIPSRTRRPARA

[4] = target: T2, Hera_K51Q (Thermus thermophilus, UniProt O07897 1-510, K51Q); experiment: fluorescence anisotropy
T2 sequence: T1 sequence with K51Q

[5] = target: T3, Hera/Hera_K51Q heterodimer (Thermus thermophilus, UniProt O07897;O07897 1-510;1-510, K51Q); experiment: fluorescence anisotropy
T3 sequence 1: T1 sequence
T3 sequence 2: T1 sequence with K51Q

[6] = target: T4, trans-heterodimer Hera_1-419/Hera_370-510 (Thermus thermophilus, UniProt O07897;O07897 1-419;370-510); experiment: stopped-flow fluorescence
T4 sequence 1: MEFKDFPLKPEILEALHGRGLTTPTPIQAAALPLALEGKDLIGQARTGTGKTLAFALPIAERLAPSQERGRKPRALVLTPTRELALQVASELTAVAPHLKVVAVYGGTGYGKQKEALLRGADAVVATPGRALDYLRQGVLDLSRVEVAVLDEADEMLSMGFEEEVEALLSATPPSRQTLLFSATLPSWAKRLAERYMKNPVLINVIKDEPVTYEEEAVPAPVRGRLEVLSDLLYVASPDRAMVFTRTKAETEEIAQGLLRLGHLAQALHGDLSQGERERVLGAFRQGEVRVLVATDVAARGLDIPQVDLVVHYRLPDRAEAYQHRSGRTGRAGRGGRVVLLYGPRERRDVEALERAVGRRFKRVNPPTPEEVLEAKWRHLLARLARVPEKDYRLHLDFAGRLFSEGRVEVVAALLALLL
T4 sequence 2: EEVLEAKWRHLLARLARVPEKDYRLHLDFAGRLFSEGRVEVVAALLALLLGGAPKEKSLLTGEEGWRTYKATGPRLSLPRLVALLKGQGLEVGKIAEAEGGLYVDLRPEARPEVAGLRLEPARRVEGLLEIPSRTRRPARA

[7] = target: T1, Hera; experiment: stopped-flow fluorescence
[8] = target: T2, Hera_K51Q; experiment: stopped-flow fluorescence
[9] = target: T3, Hera/Hera_K51Q heterodimer; experiment: stopped-flow fluorescence
[10] = target: T5, cis-heterodimer Hera/Hera_208-419 (Thermus thermophilus, UniProt O07897;O07897 1-510;208-419); experiment: fluorescence anisotropy
T5 sequence 1: T1 sequence
T5 sequence 2: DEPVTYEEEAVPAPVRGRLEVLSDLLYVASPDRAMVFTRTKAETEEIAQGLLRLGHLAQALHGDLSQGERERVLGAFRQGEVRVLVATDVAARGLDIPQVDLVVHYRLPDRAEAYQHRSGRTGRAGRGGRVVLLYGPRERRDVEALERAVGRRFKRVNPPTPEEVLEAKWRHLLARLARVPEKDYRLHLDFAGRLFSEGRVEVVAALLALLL

[11] = target: T6, Hera/Hera_1-419 heterodimer, dye-labelled in cis (Thermus thermophilus, UniProt O07897;O07897 1-510;1-419, E115C;E227C); experiment: single-molecule FRET
T6 sequence 1: T1 sequence with E115C, E227C
T6 sequence 2: T4 sequence 1

[12] = target: T7, Hera/Hera_1-419 heterodimer, dye-labelled in trans (Thermus thermophilus, UniProt O07897;O07897 1-510;1-419, E115C;E227C); experiment: single-molecule FRET
T7 sequence 1: T1 sequence
T7 sequence 2: T4 sequence 1 with E115C, E227C

[13] = target: T8, Hera_E115C_E227C (Thermus thermophilus, UniProt O07897 1-510, E115C;E227C); experiment: single-molecule FRET
T8 sequence: T1 sequence with E115C, E227C

[14] = target: T9, Hera_1-419_E115C_E227C/Hera_1-419 heterodimer (Thermus thermophilus, UniProt O07897;O07897 1-419;1-419, E115C;E227C); experiment: single-molecule FRET
T9 sequence 1: T4 sequence 1 with E115C, E227C
T9 sequence 2: T4 sequence 1

[15] = target: T5, cis-heterodimer Hera/Hera_208-419; experiment: stopped-flow fluorescence
[16] = target: T10, Hera/Hera_1-419 heterodimer (Thermus thermophilus, UniProt O07897;O07897 1-510;1-419); experiment: fluorescence anisotropy
T10 sequence 1: T1 sequence
T10 sequence 2: T4 sequence 1

[17] = target: T4, trans-heterodimer …; experiment: fluorescence anisotropy

Hera_1–419_K51Q (ATPase-deficient variant) (domain or fragment)
stoichiometry N [1]: 2

Hera_1–510_K51Q (ATPase-deficient variant) (enzyme)
stoichiometry N [2]: 2

GCAGGUCCCAAGGGUUGGGCUGUUCGCCCAUU (structured_RNA) [fl-32mer]
Kd [3]: 60 ± 10 nM
Kd [4]: 170 ± 20 nM
Kd [5]: 80 ± 20 nM
Kd [6]: 7300 ± 1000 nM
Kd [7]: 490 ± 220 nM
Kd [8]: 1500 ± 700 nM
Kd [9]: 130 ± 70 nM
Kd [10]: 126 ± 9 nM

GCAGGUCCCAAGGGUUGGGCUGUUCGCCCAUU (structured_RNA) [32mer (smFRET)]
binding result [11]: binds
binding result [12]: binds
binding result [13]: binds
binding result [14]: binds

B1: fl-32/9mer (structured_RNA)
RNA 1: GCAGGUCCCAAGGGUUGGGCUGUUCGCCCAUU
RNA 2: UUGGGACCU
Kd [15]: 1800 ± 800 nM
Kd [16]: 3000 ± 300 nM
Kd [3]: 2000 ± 300 nM
Kd [4]: 2100 ± 400 nM
Kd [5]: 2500 ± 400 nM
Kd [7]: 3000 ± 1000 nM
Kd [10]: 1400 ± 500 nM
Kd [17]: 16000 ± 6000 nM
